Several values for one entry are separate records, joined by “and”; a condition that tells them apart may be missing. Equal entries are not always repeated.
B1: PRSIM_23: Tn3 protein specific for HCV NS3/4A PR (S139A):simeprevir complex, SEQ ID NO: 5 (protein)
chain: RLDAPSQIEVKDVTDTTALITWVDPRYDDIWWFELTYGIKDVPGDRTTIKLYLNDPYYSIGNLKPDTEYEVSLISYTGDSYSRSGSNPAKITFKTGL
modifications: PRSIM_23
B2: PRSIM_57: scFv specific for HCV NS3/4A PR (S139A):simeprevir complex, SEQ ID NO: 12 (protein)
scFv: QVQLVQSGAEVKKPGSSVKVSCKASGGTFSSYAISWVRQAPGQGLEWMGGIIPIFGTANYAQKFQGRVTITADESTSTAYMELSSLRSEDTAVYYCARHTNYITVFDYWGQGTLVTVSSGGGGSGGGGSGGGGSAQSVLTQPPSASGTPGQRVTISCSGSSSNIGSNTVNWYQQLPGTAPKLLIYSNNQRPSGVPDRFSGSKSGTSASLAISGLQSEDEADYYCAAWDHHWEQVVFGGGTKLTVL
modifications: PRSIM_57
B3: PRSIM_33: Tn3 PRSIM binding molecule, SEQ ID NO: 7 (protein)
chain: RLDAPSQIEVKDVTDTTALITWYPPGRWYDDIWYFELTYGIKDVPGDRTTIKLARGDDVYSIGNLKPDTEYEVSLISWGPDRGDRAGSNPAKITFKTGL
modifications: PRSIM_33
B4: PRSIM_67: scFv PRSIM binding molecule, SEQ ID NO: 13 (protein)
scFv: EVQLVQSGAEVKKPGAAVRISCKTSGYVFTSYYVHWVRQAPGQGLEWMGVINPSGGNTNYAQKFQDRVTMTRDTSTTTVYMELSSLMFDDTAVYYCAKRDYGGPLANWGRGTLVTVSSGGGGSGGGGSGGGGSALSYELTQPPSVSEAPRQRVTISCSGSSSNIGNNAVNWYQQLPGKAPKLLIFYDDLLPSGVSDRFSGSKSGTSASLAISGLQSEDEADYYCAAWDDSLNGLVFGTGTKLTVL
modifications: PRSIM_67
B5: PRSIM_75: scFv PRSIM binding molecule, SEQ ID NO: 15 (protein)
scFv: EVQLVQSGAEVKKPGSSVKVSCKASGGSFNSYTLDWVRQAPGQGLEWMGGIIPVFGSPNYGQKFQGRVTITADESTSTAYMELSSLKSDDTAVYYCARGLVYQPLDSWGRGTLVTVSSGGGGSGGGGSGGGGSAQAVLTQPSSASGTPGQRVTISCSGSSSNIGSYTVNWYQQFPGTAPKLLIYSNTQRPSGVPDRFSGSKSGTSASLAISGLQSEDEADYYCAAWDDSLNGWVFGGGTKVTVL
modifications: PRSIM_75
B6: PRSIM_04: scFv PRSIM binding molecule, SEQ ID NO: 11 (protein)
scFv: QVQLVQSGAEVKKPGSSVKVSCKASGGTFSSYAISWVRQAPGQGLEWMGGIIPIFGTANYAQKFQGRVTITADESTSTAYMELSSLRSEDTAVYYCARGMAHFYQFDLWGQGTLVTVSSGGGGSGGGGSGGGGSAQSVLTQPPSASGTPGQRVTISCSGSSSNIGSNTVNWYQQLPGTAPKLLIYSNNQRPSGVPDRFSGSKSGTSASLAISGLQSEDEADYYCAAGDHDHEHVVFGGGTKLTVL
modifications: PRSIM_04
B7: PRSIM_72: scFv PRSIM binding molecule, SEQ ID NO: 14 (protein)
scFv: B6 scFv
modifications: PRSIM_72

Tested on: luciferase reporter gene in HEK293 cells
Test: Transcriptional regulation assay (split transcription factor), luciferase reporter
Assay type: cell-based, human
Conditions: PRSIM fused to AD; one copy
Text: The iDimerize regulated transcription system (Takara) was used to test the ability of PRSIM-based CIDs to regulate gene expression. […] The DBD and AD are separately fused to the two protein components of a CID such that, only in the presence of the small molecule inducer, the AD is brought into close proximity to the DBD, recruiting the transcription machinery to a promoter harbouring the DBD recognition sites. The iDimerize regulated transcription system (Takara) provides two vectors, pHet-Act1-2 and pZFHD1-Luciferase. The pHet-Act1-2 vector encodes two fusion proteins that represent a positive control: one is a fusion between FRB (T82L mutant; DmrC) and an activation domain (AD) from human p65 (SEQ ID NO: 42); the other is a fusion protein comprised of a DNA binding domain (ZFHD1) (SEQ ID NO: 43) fused to three tandem copies of FKBP12 (DmrA). These sequences are preceded by a CMV promoter and separated by an internal ribosome entry site (IRES). The ZFHD1 vector encodes luciferase preceded by an inducible promoter consisting of 12 copies of the recognition sequence of the ZFHD1 DBD upstream of a minimal IL-2 promoter. Binding of the DBD to its recognition sequence and recruitment of the transcriptional machinery by the AD initiates transcription of the luciferase reporter gene. The DNA sequence encoding HCV NS3/4A PR (S139A) was purchased as a DNA string from GeneArt and cloned into the pHet-Act1-2 vector as either an N-terminal fusion partner to the activation domain (SEQ ID NO: 44) (replacing FRB) or as a C-terminal fusion partner to the DNA binding domain (SEQ ID NO: 45) (replacing FKBP12) with flexible linkers (TGGGGSGGGGS (SEQ ID NO: 185) and SA, respectively) between the fusion partners. Subsequently, sequences encoding one copy of a panel of 12 PRSIM molecules (Table 2) were purchased as DNA strings from GeneArt and were cloned using Gibson assembly into the HCV NS3/4A PR (S139A)-containing pHetAct1-2 constructs described above, as a fusion partner to either the DBD (SEQ ID NOS: 46-56) or AD (SEQ ID NOS: 57-67), respectively. An equivalent construct was generated to replace the three copies of FKBP12 in pHet-Act1-2 with a single copy of FKBP12. The sequence of the constructs encoding both activation domain and DNA-binding domain fusion proteins was confirmed by Sanger sequencing of the entire coding region.
Sequences encoding the three HCV NS3/4A PR (S139A) mutants (Table 6) were purchased as DNA strings from GeneArt and were cloned using Gibson assembly into the pHetAct1-2 HCV NS3/4A PR (S139A)-PRSIM_23 (3 tandem copy) construct described above as a fusion partner to the AD (SEQ ID NOs: 211-216).
All transcriptional regulation assays were performed in adherent HEK293 cells cultured in 384-well plates. Cells enzymatically dissociated from a tissue culture flask were counted and plated at 7.5×10^3 cells/well in a 384-well plate. The plates were incubated overnight at 37° C. with 5% CO2 to allow the cells to adhere. On day 2, the cells were co-transfected with a pHet-Act1-2 plasmid (containing the FRB:FKBP12 control fusion proteins (Clontech) or the HCV NS3/4A PR (S139A):PRSIM fusion proteins) and a pZFHD1 plasmid (encoding either luciferase (Clontech) or NanoLuc-PEST (as described above)) using Lipofectamine LTX (ThermoFisher). On day 3, wells were treated with different concentrations of either A/C heterodimeriser (for the FRB:FKBP12 control), simeprevir or with vehicle control, and 24 hours later luminescence was quantified with an Envision plate reader immediately following addition of SteadyGlo luciferase substrate (Promega) or Nano-Glo Vivazine luciferase substrate (Promega). Alternatively, reverse transfections were carried out on Day 1, addition of dimeriser on Day 2 and luminescence quantified 24 hours later on Day 3.
Luminescence readings were converted into fold-change by dividing the signal in the presence of simeprevir by that in the absence of simeprevir.

For B1, the Max fold change was 106 and 106.67.

Point of comparison: B7, Max fold change 2.2. Against it:
- B2 — higher, 10.73
- B3 — higher, 2.9
- B4 — higher, 87.1
- B5 — higher, 40.67
- B6 — higher, 6.9

Same assay, conditions: PRSIM fused to AD; one copy; simeprevir dose-response; read-out: EC50

Point of comparison: B2, EC50 3.21 nM. Against it:
- B1 — within 1.5-fold, 2.82 nM
- B3 — 26-fold higher, 82.4 nM
- B4 — 1.5-fold higher, 4.97 nM
- B5 — within 1.5-fold, 2.17 nM
- B6 — 50000-fold higher, 159000 nM
- B7 — 1.5-fold higher, 4.84 nM

Same assay, conditions: PRSIM fused to DBD; one copy

B1 was tested, and the Max fold change was 88 and 88.8.
In the case of B2, the Max fold change is reported as 146 and 146.6.

Point of comparison: B6, Max fold change 1.364. Against it:
- B3 — higher, 33.14
- B4 — lower, 1
- B5 — higher, 9.4
- B7 — higher, 1.4

Same assay, conditions: PRSIM fused to DBD; one copy; simeprevir dose-response; read-out: EC50

Point of comparison: B4, EC50 2.05 nM. Against it:
- B1 — within 1.5-fold, 2.47 nM
- B2 — 1.7-fold higher, 3.54 nM
- B3 — 6.2-fold higher, 12.8 nM
- B5 — within 1.5-fold, 2.67 nM
- B6 — 3.2-fold higher, 6.55 nM
- B7 — 16-fold higher, 33 nM

Same assay, conditions: direct comparison of DBD-PRSIM constructs with FRB:FKBP12:rapalog positive control

Point of comparison: B1, “fold increase in luciferase expression” value 100 fold. Against it:
- B2 — the same, 100 fold

Same assay, conditions: firefly luciferase; one copy of PRSIM_23 fused to DBD

For B1, the max fold change was 364.5.

Same assay, conditions: firefly luciferase; three tandem PRSIM_23 fused to DBD

In the case of B1, the max fold change is reported as 4862 fold.

Same assay, conditions: firefly luciferase; two tandem PRSIM_23 fused to DBD

B1 gave a max fold change of 2436.

Same assay, conditions: fusion orientation not stated; read-out: EC50

Molecule B1 has an EC50 of 2 nM.

Molecular target: HCV NS3/4A PR (S139A) (Hepatitis C virus subtype 1a, UniProt A8DG50, A1066T/I1043Q/I1044E/L1039E/L1040E/L1047Q/S1165A, form not given)
Test: Biacore 8K binding kinetics of PRSIM binding molecules
Conditions: 10 nM simeprevir present
Description: The scFv and Tn3 PRSIM binding molecules were covalently immobilised to a CM5 chip surface using standard amine coupling techniques at a concentration of 1 μg/ml in 10 mM sodium acetate pH 4.5.
The HCV NS3/4A PR (S139A), or BSA control, was diluted 1:4 (1.25-20 nM)±10 nM simeprevir in 10 mM Hepes pH 7.4, 150 mM NaCl, 0.05% Surfactant P20, 0.01% DMSO, ensuring constant simeprevir and DMSO concentration. The samples were flowed over the chip at 50 μl/min using single cycle kinetics, with 120 sec association and 600 sec dissociation. The chip surface was regenerated with two 20 sec pulses of 10 mM Glycine-HCl pH 3.0. The final sensorgrams were analysed using the Biacore 8K Evaluation Software and the affinity constant KD was determined using a 1:1 binding model. The same method was used for measuring the affinity of the HCV NS3/4A PR mutants for PRSIM_23 with minor deviations. The mutants were diluted 1:4 (2.5-40 nM)±simeprevir in 10 mM Hepes pH 7.4, 150 mM NaCl, 0.05% Surfactant P20, 0.08% DMSO, ensuring constant simeprevir and DMSO concentration. The samples were flowed over the chip at 50 μl/min using single cycle kinetics, with 180 sec association and 600 sec dissociation.

Point of comparison: B2, Kd 15 nM. Against it:
- B1 — 2.4-fold lower, 6.3 nM
- B4 — within 1.5-fold, 11.5 nM
- B5 — 50-fold lower, 0.3 nM
- B6 — within 1.5-fold, 11.2 nM
- B7 — 15-fold lower, 1 nM

Point of comparison: B6, Rmax 65.9 RUs. Against it:
- B1 — higher, 284 RUs
- B2 — higher, 69.1 RUs
- B3 — higher, 171.9 RUs
- B4 — lower, 19.3 RUs
- B5 — higher, 88.8 RUs
- B7 — lower, 33.4 RUs

Point of comparison: B2, ka 1.73e+07 M⁻¹ s⁻¹. Against it:
- B1 — 3.4-fold lower, 5.03e+06 M⁻¹ s⁻¹
- B3 — 4.7-fold lower, 3.65e+06 M⁻¹ s⁻¹
- B4 — within 1.5-fold, 1.97e+07 M⁻¹ s⁻¹
- B5 — 1.9-fold lower, 9.09e+06 M⁻¹ s⁻¹
- B6 — within 1.5-fold, 1.74e+07 M⁻¹ s⁻¹
- B7 — 15-fold lower, 1.18e+06 M⁻¹ s⁻¹

Point of comparison: B5, kd 0.00267 s⁻¹. Against it:
- B1 — 12-fold higher, 0.0318 s⁻¹
- B2 — 97-fold higher, 0.26 s⁻¹
- B3 — 11-fold higher, 0.0303 s⁻¹
- B4 — 85-fold higher, 0.226 s⁻¹
- B6 — 73-fold higher, 0.195 s⁻¹
- B7 — 2.3-fold lower, 0.00118 s⁻¹

Same assay, conditions: ‘WT’ (S139A), 20 nM simeprevir

B1 was tested, and the Kd was 5.4 nM.

In the case of B1, the Rmax is reported as 215 RUs.

B1 showed a ka of 5.59e+09 M⁻¹ s⁻¹.

Work on B1 yielded a kd of 31 s⁻¹.

From patent publication US20220380801A1, “TRIPARTITE SYSTEMS FOR PROTEIN DIMERIZATION AND METHODS OF USE” (priority 2019, published 2022)
